In experiment [1] the target is T1, p116 Jak3 (endogenous, human thymocytes) (human, UniProt P52333 1-1124, limits assumed).
T1 sequence (looked up): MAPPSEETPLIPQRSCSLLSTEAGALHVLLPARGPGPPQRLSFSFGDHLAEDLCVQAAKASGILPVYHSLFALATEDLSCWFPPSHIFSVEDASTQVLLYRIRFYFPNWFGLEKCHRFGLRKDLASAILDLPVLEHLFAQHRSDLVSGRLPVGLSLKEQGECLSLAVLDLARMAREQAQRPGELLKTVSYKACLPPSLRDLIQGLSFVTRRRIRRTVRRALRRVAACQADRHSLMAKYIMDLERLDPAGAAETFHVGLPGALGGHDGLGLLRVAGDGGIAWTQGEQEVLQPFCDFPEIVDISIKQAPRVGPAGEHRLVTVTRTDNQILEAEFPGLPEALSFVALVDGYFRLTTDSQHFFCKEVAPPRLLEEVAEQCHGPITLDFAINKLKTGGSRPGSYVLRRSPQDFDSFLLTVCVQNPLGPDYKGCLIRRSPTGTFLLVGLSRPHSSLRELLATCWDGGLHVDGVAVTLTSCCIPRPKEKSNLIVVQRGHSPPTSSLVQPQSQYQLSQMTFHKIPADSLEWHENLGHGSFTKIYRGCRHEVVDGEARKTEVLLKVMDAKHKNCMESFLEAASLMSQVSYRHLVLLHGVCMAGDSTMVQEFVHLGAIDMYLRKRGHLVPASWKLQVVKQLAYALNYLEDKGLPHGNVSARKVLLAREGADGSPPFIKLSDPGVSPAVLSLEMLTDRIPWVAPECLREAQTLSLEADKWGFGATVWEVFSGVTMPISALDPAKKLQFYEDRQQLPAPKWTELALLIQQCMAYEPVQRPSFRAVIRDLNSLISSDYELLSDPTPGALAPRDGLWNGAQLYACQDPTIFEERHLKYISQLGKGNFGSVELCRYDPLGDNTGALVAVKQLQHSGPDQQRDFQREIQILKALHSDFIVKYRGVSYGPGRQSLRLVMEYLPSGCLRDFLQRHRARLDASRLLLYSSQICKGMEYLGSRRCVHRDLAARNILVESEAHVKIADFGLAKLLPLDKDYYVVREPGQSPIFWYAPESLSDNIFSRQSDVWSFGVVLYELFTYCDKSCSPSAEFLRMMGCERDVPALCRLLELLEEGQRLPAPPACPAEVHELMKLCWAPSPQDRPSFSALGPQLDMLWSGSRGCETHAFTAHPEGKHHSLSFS
Description: western blot of Lyp immunoprecipitates from anti-CD3 stimulated human thymocytes. As for the experimental part: (§1) (A) Lyp immunoprecipitates from thymocytes (80×10⁶ cells) stimulated with anti-CD3 were blotted with antiphsophotyrosine. […] Lyp protein loading was quantitated by anti-Lyp western blot after stripping. […] (C) Lyp1 was transfected into COS-7 cells and Cbl immunoprecipitates prepared from these and untransfected cells. Western blotting was performed with Lyp antibodies. The position of Lyp is indicted by an arrow. Cbl immunoprecipitates were also prepared and blotted with anti-phosphotyrosine (D), and then anti-Cbl after stripping.
(§2) One of the earliest events following TCR stimulation of T cells is the induction of tyrosine phosphorylation. In order to determine whether Lyp played a role in TCR signalling, human thymocytes were stimulated with anti-CD3 for various periods of time, Lyp immunoprecipitated and blotted with anti-phosphotyrosine. […] Once activated, the phosphorylation level of this protein remained constant over a period of 20 minutes. […] This interaction was also observed in the mature T cell line Jurkat (not shown) and further confirmed by transfection of Lyp1 into COS-7 cells and examining its association with the endogenous Cbl protein (FIG. 13C).

The next experiment addresses p125Fak (human, UniProt Q05397 2-1052, limits assumed). The description is as above. As for the experimental part: as §1, §2

Sequence of p125Fak (Q05397 2-1052 limits assumed): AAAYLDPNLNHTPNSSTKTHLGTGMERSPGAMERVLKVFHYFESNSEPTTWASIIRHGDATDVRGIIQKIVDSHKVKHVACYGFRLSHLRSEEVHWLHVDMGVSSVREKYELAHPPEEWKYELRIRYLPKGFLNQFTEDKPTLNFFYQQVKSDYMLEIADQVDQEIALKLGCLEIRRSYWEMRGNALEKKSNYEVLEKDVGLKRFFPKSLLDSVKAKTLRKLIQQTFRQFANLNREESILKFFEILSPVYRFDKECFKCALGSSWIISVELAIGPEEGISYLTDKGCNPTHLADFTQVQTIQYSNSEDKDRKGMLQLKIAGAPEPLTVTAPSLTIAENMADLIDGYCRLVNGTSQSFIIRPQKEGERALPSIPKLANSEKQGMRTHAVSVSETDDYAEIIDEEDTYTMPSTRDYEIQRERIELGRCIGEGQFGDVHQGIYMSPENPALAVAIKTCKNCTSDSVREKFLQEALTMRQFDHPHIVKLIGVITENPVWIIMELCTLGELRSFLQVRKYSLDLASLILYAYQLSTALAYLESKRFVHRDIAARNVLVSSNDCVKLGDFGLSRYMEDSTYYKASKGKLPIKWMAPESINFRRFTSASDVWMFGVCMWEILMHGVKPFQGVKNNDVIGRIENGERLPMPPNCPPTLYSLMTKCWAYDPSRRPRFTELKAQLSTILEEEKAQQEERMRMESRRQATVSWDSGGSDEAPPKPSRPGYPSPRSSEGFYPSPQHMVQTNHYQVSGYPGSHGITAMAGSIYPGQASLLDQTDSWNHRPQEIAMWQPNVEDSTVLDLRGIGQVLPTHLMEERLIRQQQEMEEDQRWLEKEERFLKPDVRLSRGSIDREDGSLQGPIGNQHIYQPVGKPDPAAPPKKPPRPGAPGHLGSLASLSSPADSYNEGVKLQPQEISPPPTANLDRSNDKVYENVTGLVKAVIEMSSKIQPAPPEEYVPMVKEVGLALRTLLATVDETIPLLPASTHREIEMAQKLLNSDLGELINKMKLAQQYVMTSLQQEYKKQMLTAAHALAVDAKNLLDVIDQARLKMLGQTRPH

B1: Lyp1 (human lymphoid protein tyrosine phosphatase, 105 kD) (enzyme)
chain: MDQREILQKFLDEAQSKKITKEEFANEFLKLKRQSTKYKADKTYPTTVAENAKNIKKNRYKDILPYDYSRVELSLITSDEDSSYINANFIKGVYGPKAYIATQGPLSTTLLDFWRMIWEYSVLIIVMACMEYEMGKKKCERYWAEPGEMQLEFGPFSVSCEAEKRKSDYIIRTLKVKFNSETRTIYQFHYKNWPDHDVPSSIDPILELIWDVRCYQEDDSVPICIHCSAGCGRTGVICAIVDYTWMLLKDGIIPENFSVFSLIREMRTQRPSLVQTQEQYELVYNAVLELFKRQMDVIRDKHSGTESQAKHCIPEKNHTLQADSYSPNLPKSTTKAAKMMNQQRTKMEIKESSSFDFRTSEISAKEELVLHPAKSSTSFDFLELNYSFDKNADTTMKWQTKAFPIVGEPLQKHQSLDLGSLLFEGCSNSKPVNAAGRYFNSKVPITRTKSTPFELIQQRETKEVDSKENFSYLESQPHDSCFVEMQAQKVMHVSSAELNYSLPYDSKHQIRNASNVKHHDSSALGVYSYIPLVENPYFSSWPPSGTSSKMSLDLPEKQDGTVFPSSLLPTSSTSLFSYYNSHSSLSLNSPTNISSLLNQESAVLATAPRIDDEIPPPLPVRTPESFIVVEEAGEFSPNVPKSLSSAVKVKIGTSLEWGGTSEPKKFDDSVILRPSKSVKLRSPKSELHQDRSSPPPPLPERTLESFFLADEDCMQAQSIETYSTSYPDTMENSTSSKQTLKTPGKSFTRSKSLKILRNMKKSICNSCPPNKPAESVQSNNSSSFLNFGFANRFSKPKGPRNPPPTWNI
notes: also called native Lyp1; pcDNA3-Lyp1
Take B1: the binding result (in experiment [1]; with p125Fak) was “no binding” each time.

These data come from patent publication US20040006777A1 (HSC RESEARCH AND DEVELOPMENT LIMITED PARTNERSHIP, published 2004).
